Changes are numbered by the printed parent chain. Names and notes keep the numbering of the source.

Among the data in paper PMC10786891, “Massively parallel profiling of RNA-targeting CRISPR-Cas13d” are Kd values, retold here.

To fix the notation:
B1: target 1 G17C,C21A (mixed)
RNA 1: CACCCGUGCAAAAAUGCAGGGGUCUAAAACUGAGCGGAUAACCUCUCUAUGG
RNA 2: GGGAAUGGAUCCACAUCUACGAAUUCGUACAAUACAGAGGUUAUCCGCUCACCGAGAUCGGAAGAGCACACGU
B2: target 1 del1,del3 (mixed)
RNA 1: B1 RNA 1
RNA 2: GGGAAUGGAUCCACAUCUACGAAUUCGUACCAUAGAGAGGUUAUCCGCCCCGAGAUCGGAAGAGCACACGU
B3: target 1 del3,del4 (mixed)
RNA 1: B1 RNA 1
RNA 2: B2 RNA 2 with C49A
B4: target 1 insC 3' of 20,insC 3' of 13 (mixed)
RNA 1: B1 RNA 1
RNA 2: GGGAAUGGAUCCACAUCUACGAAUUCGUACCACUAGAGAGCGUUAUCCGCUCACCGAGAUCGGAAGAGCACACGU
B5: target 1 U10A,C21U (mixed)
RNA 1: B1 RNA 1
RNA 2: B1 RNA 2 with A31U, C35G, U42A
B6: target 1 U8C,U11A (mixed)
RNA 1: B1 RNA 1
RNA 2: B1 RNA 2 with A31C, C35G, U41A, U44C
B7: target 1 insA 3' of 13,insA 3' of 12 (mixed)
RNA 1: B1 RNA 1
RNA 2: GGGAAUGGAUCCACAUCUACGAAUUCGUACCAUAGAGAGAGAUUAUCCGCUCACCGAGAUCGGAAGAGCACACGU
B8: target 1 insC 3' of 10,insA 3' of 3 (mixed)
RNA 1: B1 RNA 1
RNA 2: GGGAAUGGAUCCACAUCUACGAAUUCGUACCAUAGAGAGGUUCAUCCGCUACACCGAGAUCGGAAGAGCACACGU
B9: target 1 insC 3' of 17,insA 3' of 12 (mixed)
RNA 1: B1 RNA 1
RNA 2: B7 RNA 2 with A36C, G37A, A38G, G39A, A40G
B10: target 1 C7U,G13U (mixed)
RNA 1: B1 RNA 1
RNA 2: B1 RNA 2 with A31C, C35G, G39U, C45U
B11: target 1 insC 3' of 15,insU 3' of 1 (mixed)
RNA 1: B1 RNA 1
RNA 2: B8 RNA 2 with A38C, G39A, U41G, C43U, A51C, C52A, A53U
B12: target 1 insC 3' of 17,insU 3' of 13 (mixed)
RNA 1: B1 RNA 1
RNA 2: B4 RNA 2 with C33U, U34A, A35G, G36C, C41U
B13: target 1 C2A,U19G (mixed)
RNA 1: B1 RNA 1
RNA 2: B1 RNA 2 with A31C, U33G, C35G, C50A
B14: target 1 insC 3' of 8,insC 3' of 1 (mixed)
RNA 1: B1 RNA 1
RNA 2: B8 RNA 2 with C43A, A44U, U45C, A51C, C52A, A53C
B15: target 1 U10G,U11A (mixed)
RNA 1: B1 RNA 1
RNA 2: B1 RNA 2 with A31C, C35G, U41A, U42G
B16: target 1 insC 3' of 8,insG 3' of 1 (mixed)
RNA 1: B1 RNA 1
RNA 2: B8 RNA 2 with C43A, A44U, U45C, A51C, C52A, A53G
B17: target 1 insG 3' of 11,insA 3' of 3 (mixed)
RNA 1: B1 RNA 1
RNA 2: B8 RNA 2 with U42G, C43U
B18: target 1 A1G,C6A (mixed)
RNA 1: B1 RNA 1
RNA 2: B1 RNA 2 with A31C, C35G, C46A, A51G
B19: target 1 insG 3' of 18,insA 3' of 4 (mixed)
RNA 1: B1 RNA 1
RNA 2: B8 RNA 2 with A36G, G37A, A38G, G39A, U41G, C43U, U50A, A51U
B20: target 1 U10C,U11C (mixed)
RNA 1: B1 RNA 1
RNA 2: B1 RNA 2 with A31C, C35G, U41C, U42C
B21: target 1 A1G,G17U (mixed)
RNA 1: B1 RNA 1
RNA 2: B1 RNA 2 with A31C, C35U, A51G
B22: target 1 C2U,A18C (mixed)
RNA 1: B1 RNA 1
RNA 2: B1 RNA 2 with A31C, A34C, C35G, C50U
B23: target 1 G5A,C21U (mixed)
RNA 1: B1 RNA 1
RNA 2: B1 RNA 2 with A31U, C35G, G47A
B24: target 1 insU 3' of 17,insA 3' of 17 (mixed)
RNA 1: B1 RNA 1
RNA 2: B7 RNA 2 with A36U, G37A, A42G
B25: target 1 A9C,A18U (mixed)
RNA 1: B1 RNA 1
RNA 2: B1 RNA 2 with A31C, A34U, C35G, A43C
B26: target 1 insA 3' of 15,insA 3' of 4 (mixed)
RNA 1: B1 RNA 1
RNA 2: B8 RNA 2 with G39A, U41G, C43U, U50A, A51U
B27: target 1 insC 3' of 8,insA 3' of 2 (mixed)
RNA 1: B1 RNA 1
RNA 2: B8 RNA 2 with C43A, A44U, U45C, A51C, C52A
B28: target 1 insC 3' of 13,insC 3' of 11 (mixed)
RNA 1: B1 RNA 1
RNA 2: B7 RNA 2 with A40C, A42U, U43C
B29: target 1 C7U,C21U (mixed)
RNA 1: B1 RNA 1
RNA 2: B1 RNA 2 with A31U, C35G, C45U
B30: target 1 insA 3' of 22,insA 3' of 21 (mixed)
RNA 1: B1 RNA 1
RNA 2: B7 RNA 2 with C31A, A32C, U33A, G35U, A42G
B31: target 1 C7G,A18U (mixed)
RNA 1: B1 RNA 1
RNA 2: B1 RNA 2 with A31C, A34U, C35G, C45G
B32: target 1 U8G,G17U (mixed)
RNA 1: B1 RNA 1
RNA 2: B1 RNA 2 with A31C, C35U, U44G
B33: target 1 C4U,G12U (mixed)
RNA 1: B1 RNA 1
RNA 2: B1 RNA 2 with A31C, C35G, G40U, C48U

The data set has as its target T1, EsCas13d, nuclease-dead (Eubacterium siraeum, UniProt B0MS50, R295A;H300A;R849A;H854A).
T1 sequence: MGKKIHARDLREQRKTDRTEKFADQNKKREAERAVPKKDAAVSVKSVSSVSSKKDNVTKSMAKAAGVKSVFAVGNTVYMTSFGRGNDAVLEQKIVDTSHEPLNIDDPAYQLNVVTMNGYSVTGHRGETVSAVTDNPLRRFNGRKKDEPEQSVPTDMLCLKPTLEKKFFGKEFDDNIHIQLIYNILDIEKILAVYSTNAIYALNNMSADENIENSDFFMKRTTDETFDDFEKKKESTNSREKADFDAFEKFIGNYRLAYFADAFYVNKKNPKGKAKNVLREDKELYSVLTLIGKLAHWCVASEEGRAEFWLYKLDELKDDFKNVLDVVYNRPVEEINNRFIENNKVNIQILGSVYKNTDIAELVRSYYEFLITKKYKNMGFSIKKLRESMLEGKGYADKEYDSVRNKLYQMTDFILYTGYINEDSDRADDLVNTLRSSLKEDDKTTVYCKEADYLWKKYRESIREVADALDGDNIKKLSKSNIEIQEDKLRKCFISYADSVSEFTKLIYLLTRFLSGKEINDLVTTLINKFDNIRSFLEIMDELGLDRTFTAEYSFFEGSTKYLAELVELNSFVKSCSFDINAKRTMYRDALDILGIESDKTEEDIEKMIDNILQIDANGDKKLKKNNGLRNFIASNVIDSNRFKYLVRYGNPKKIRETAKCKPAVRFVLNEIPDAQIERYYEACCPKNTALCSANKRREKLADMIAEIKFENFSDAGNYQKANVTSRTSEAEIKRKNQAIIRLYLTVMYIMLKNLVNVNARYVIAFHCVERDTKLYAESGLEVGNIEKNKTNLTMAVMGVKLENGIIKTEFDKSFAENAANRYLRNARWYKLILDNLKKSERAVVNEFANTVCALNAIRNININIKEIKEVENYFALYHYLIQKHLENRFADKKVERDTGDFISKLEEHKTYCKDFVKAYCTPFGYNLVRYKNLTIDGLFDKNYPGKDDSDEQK
As to the kind of experiment: crRNA (strand 1, pre-loaded); Mg2+; 40 mM Tris-HCl pH 7.5, 150 mM NaCl, 6 mM MgCl2, 1 mM DTT, 0.1% Tween-20, 0.2 mg/ml BSA; 25 C; 10 min per concentration, then washed. The note with it: tags: His6-TwinStrep-SUMO cleaved; N-terminal SNAP kept (SNAP-Surface 488); label: 3' end held by stalled T7 RNA polymerase.
B1 yielded a Kd of 47 ± 12 nM. In the case of B2 it was 45 ± 13 nM; in that of B3, 14.4 ± 1.2 nM.

B4 came in with a Kd of 7.2 ± 0.6 nM. B5: binding was characterised by a dissociation constant (Kd) of 8.1 ± 0.5 nM. Molecule B6 gave a Kd of 32.5 ± 3.2 nM. The value for B7 was 11.8 ± 0.8 nM; that for B8 was 12.9 ± 0.6 nM.

The molecule B9 gave a Kd of 32.9 ± 2.7 nM. In the case of B10, the Kd worked out at 39 ± 6 nM. In the case of B11 it was 19.1 ± 1.8 nM; in that of B12, 80 ± 40 nM.

B13: the Kd was found to be 48 ± 5 nM. In turn, B14 returned a Kd of 13 ± 0.9 nM. In the case of B15 it was 12.9 ± 1 nM; in that of B16, 14.3 ± 1 nM. The value for B17 was 17.5 ± 1.2 nM; that for B18 was 7 ± 0.35 nM; that for B19 was 43 ± 5 nM. Molecule B20 displayed a Kd of 24.7 ± 2.9 nM. In the case of B21 it was 21.3 ± 2.1 nM. The value for B22 was 48.9 ± 2.9 nM; that for B23 was 23 ± 6 nM. For B24, the Kd came out at 30.5 ± 2.2 nM. The molecule B25 returned a Kd of 63 ± 10 nM. The value for B26 was 7.7 ± 0.9 nM; that for B27 was 18.9 ± 1.4 nM; that for B28 was 14.2 ± 1 nM. For the molecule B29, binding was characterised by a dissociation constant (Kd) of 6 ± 0.4 nM. The value for B30 was 16.2 ± 0.9 nM. The value for B31 was 32 ± 6 nM. For the molecule B32, binding was put at a Kd of 91 ± 14 nM. In the case of B33 it was 36 ± 8 nM.
